Holding throughout (type): binding
For test [1], the target named is T1, ALK extracellular fragment (Homo sapiens, UniProt Q9UM73).
T1 construct: conditioned media containing the shed ALK (ALK 1-654) ECD fragment; from tissue; host or cells: serum of neuroblastoma patients
The test can be described thus: Sandwich ELISA of shed ALK ECD in patient sera. Particulars: sera of patients with ALK-expressing neuroblastoma. The text has this: Detection of the purified ALK-ECD protein using 8G7 (detection) and 7F7 (capture) anti-ALK antibodies by sandwich ELISA. (A) Standard curve showing the gradual increase in signal with increasing concentrations of the ALK-ECD protein in the media of NGP cells that express cleaved ALK. Quantification is shown below. (B) ELISA of the shed ALK ECD protein in sera from patients with neuroblastoma. Ample diluent buffer was used to dilute the serum samples, Media represents Dulbecco's Modified Eagle media in which human embryonic kidney 293T cells were grown, 293T media, conditioned media from 293T cells; ALK ECD 293T media, media collected from 293T cells in which the ALK-ECD-mFc protein was overexpressed.
We developed a sandwich ELISA technique where two ALK antibodies (for example, 5H3 or 7F7) can be used to capture the ALK extracellular fragment (antigen), and another antibody, such as the 8G7 antibody, can be used to detect the captured ALK extracellular fragment-5H3 or 7F7 complex. The different epitope binding sites of these antibodies on the ALK extracellular fragment protein allow for the development of the sandwich ELISA technique for the detection of the cleaved or shed ALK extracellular fragment in patient serum samples (FIG. 18). […]

A further test deals with ALK (Homo sapiens, UniProt Q9UM73). The test is described as follows: Western blot analysis of ALK in cell lysates and conditioned media. Also noted: endogenous in cells; host or cells: human neuroblastoma lines (NGP, SH-SY5Y, Kelly and others). From the text: (A) Western blot analysis of ALK in Kelly and SHEP neuroblastoma cells overexpressing GFP and mutated ALK using the mAb-7 and 8G7 anti-ALK antibodies. The mAb-7 antibody was developed at the Vigny laboratory (INSERM, Unité 706/Université Pierre et Marie Curie, Paris F-75005, France) (Moog-Lutz et al, 2005; PMID: 15886198) and obtained through a Materials Transfer Agreement. (B) Western blot analysis of ALK expression in various non-neuroblastoma cell lines: H1373 (human […]), HeLa (cervical cancer), NIH-3T3 (transformed mouse fibroblast cells) using 8G7 and C26G7 (rabbit monoclonal C-terminal anti-ALK antibody; Cell Signaling Technology; Cat #3333; RRID:AB_836862) anti-ALK antibodies.
The three HPLC-purified monoclonal antibodies (5H3, 7F7 and 8G7) all of the IgG1 subtype, were tested for their ability to bind to ALK in neuroblastoma cells expressing ALK. Both cell lysates and supernatants from cells grown with and without serum (to increase the expression of ALK) were tested by western blotting. […] (A) Western blot analysis of the indicated hybridoma clones in neuroblastoma cell lines expressing WT (NGP) and mutated (SHSY5Y, Kelly) ALK. NIH3T3 cells were used as controls. (B) Western blot analysis of conditioned media from NGP neuroblastoma and 293T cells engineered to express the WT ALK receptor, with the three ALK mAbs showing binding with the shed ALK extracellular domain. […]
Cell lysates were prepared in NP-40 buffer (Invitrogen) containing complete protease inhibitor (Roche), phosphatase inhibitor (Roche) and phenylmethylsulfonyl fluoride (PMSF). Lysates were incubated on ice for 20 min and centrifuged at 16,000 g for 15 min at 4° C. Protein concentrations of the supernatants were determined with the DC protein assay kit (Bio-Rad). Protein samples were denatured using NuPAGE LDS sample buffer (Invitrogen) and NuPAGE sample reducing agent (Invitrogen). Proteins were then separated on precast 4-12% Bis-Tris gels (Invitrogen) and transferred to nitrocellulose membranes (Bio-Rad). After blocking in blocking buffer (5% dry milk in TBS with 0.2% Tween-20), membranes were incubated with the primary antibody overnight at 4 °C, washed three times with TBST buffer, chemiluminescent detection performed with the appropriate secondary antibodies and developed using Genemate Blue ultra-autoradiography film (VWR).

In another test the test system is ALK receptor. The test is described as follows: Immunocytochemistry and immunohistochemistry staining of ALK. Particulars: 293T and NB9464 cells expressing WT ALK; tumor tissue from ALK F1174L/MYCN transgenic mouse model. From the text: (A). Immunocytochemistry staining with the 8G7 antibody of 293T and NB9464 (mouse neuroblastoma cells derived from Th-MycN transgenic tumor model; Weiss et al, 1997) cells expressing a control vector or WT ALK. 5×10^6 cells were fixed in 10% formalin and images captured using a Zeiss AXIO Imager Z1 fluorescence microscope following staining. (B) Immunohistochemistry of tumor tissue from the ALK F1174L/MYCN transgenic mouse model using the 8G7 antibody.
ALK receptor, sequence (Q9UM73 19-1038 limits assumed): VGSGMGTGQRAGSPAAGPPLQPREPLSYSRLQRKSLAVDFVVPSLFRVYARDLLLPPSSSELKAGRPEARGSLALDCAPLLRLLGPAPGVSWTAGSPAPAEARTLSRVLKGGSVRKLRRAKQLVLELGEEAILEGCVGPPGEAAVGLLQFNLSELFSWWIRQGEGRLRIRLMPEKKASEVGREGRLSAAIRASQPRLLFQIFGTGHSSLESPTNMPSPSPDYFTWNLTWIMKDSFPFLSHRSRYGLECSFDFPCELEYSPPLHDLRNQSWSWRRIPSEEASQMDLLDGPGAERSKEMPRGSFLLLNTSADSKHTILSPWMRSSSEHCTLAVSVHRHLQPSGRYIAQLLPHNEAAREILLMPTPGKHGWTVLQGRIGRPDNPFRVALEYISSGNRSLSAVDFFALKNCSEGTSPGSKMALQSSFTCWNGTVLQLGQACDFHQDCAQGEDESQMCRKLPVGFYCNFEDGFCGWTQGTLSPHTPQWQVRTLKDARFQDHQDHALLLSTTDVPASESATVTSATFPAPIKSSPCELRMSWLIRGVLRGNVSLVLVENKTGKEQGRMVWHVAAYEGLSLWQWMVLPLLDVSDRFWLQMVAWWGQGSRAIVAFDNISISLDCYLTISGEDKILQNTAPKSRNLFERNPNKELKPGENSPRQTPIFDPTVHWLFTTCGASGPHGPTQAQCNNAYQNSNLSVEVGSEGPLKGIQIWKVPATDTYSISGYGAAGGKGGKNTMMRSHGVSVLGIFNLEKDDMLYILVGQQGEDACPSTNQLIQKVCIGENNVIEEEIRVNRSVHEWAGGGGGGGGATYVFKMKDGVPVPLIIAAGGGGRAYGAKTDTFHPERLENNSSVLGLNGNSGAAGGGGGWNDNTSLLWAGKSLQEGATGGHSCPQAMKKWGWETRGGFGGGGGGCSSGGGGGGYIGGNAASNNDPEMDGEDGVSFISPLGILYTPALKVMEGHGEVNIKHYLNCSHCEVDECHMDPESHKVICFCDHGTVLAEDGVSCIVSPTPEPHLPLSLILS

The target of a further test is T2, full-length ALK receptor (Homo sapiens, UniProt Q9UM73).
T2 construct: endogenous in cells
T2 sequence (Q9UM73 19-1620): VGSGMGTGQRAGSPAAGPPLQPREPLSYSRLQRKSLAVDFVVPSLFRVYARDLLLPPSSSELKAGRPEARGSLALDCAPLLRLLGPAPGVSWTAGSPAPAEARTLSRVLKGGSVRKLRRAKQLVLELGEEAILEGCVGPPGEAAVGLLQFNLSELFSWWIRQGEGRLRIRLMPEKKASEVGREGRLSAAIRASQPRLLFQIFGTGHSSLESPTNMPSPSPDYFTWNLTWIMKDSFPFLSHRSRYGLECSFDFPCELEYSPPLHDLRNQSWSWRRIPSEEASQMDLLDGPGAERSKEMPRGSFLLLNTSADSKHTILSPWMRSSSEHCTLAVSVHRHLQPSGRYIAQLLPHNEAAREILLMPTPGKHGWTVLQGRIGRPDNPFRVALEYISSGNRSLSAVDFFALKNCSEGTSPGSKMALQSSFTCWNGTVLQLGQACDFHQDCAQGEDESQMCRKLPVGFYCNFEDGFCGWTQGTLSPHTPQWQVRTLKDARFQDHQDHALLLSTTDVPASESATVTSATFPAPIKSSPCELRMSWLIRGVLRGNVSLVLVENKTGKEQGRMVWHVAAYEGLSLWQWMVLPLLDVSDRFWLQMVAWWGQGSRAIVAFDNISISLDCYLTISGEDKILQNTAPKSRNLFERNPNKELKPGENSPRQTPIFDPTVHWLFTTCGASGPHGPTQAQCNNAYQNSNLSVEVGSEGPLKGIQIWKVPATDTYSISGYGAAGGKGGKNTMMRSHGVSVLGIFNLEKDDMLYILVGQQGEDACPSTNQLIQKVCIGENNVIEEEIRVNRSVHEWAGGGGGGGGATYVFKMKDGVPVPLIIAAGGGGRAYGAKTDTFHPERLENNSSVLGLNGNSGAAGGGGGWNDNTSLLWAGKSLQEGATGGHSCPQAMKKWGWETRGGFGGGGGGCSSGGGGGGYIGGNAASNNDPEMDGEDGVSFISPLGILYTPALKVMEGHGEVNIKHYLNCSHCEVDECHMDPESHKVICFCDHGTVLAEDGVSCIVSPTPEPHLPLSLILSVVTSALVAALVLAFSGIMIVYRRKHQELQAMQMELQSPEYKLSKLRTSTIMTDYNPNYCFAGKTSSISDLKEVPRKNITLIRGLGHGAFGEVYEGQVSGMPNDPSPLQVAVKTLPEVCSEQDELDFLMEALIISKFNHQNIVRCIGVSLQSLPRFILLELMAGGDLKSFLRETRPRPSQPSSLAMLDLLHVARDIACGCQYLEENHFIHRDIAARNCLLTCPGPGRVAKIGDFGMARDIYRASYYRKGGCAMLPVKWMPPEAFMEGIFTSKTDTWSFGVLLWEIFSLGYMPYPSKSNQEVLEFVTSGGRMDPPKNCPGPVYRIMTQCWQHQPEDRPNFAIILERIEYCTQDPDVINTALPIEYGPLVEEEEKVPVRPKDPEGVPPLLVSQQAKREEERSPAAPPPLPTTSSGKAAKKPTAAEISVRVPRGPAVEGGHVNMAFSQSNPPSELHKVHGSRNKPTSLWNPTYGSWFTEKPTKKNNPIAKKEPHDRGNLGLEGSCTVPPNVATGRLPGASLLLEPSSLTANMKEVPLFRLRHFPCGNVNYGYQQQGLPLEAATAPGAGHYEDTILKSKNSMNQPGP
The test is described as follows: Immunoprecipitation of ALK from neuroblastoma cell lysates. Particulars: immunoblotting with commercial anti-ALK C-terminal antibody. The text has this:
Cell lysates from the indicated neuroblastoma cell lines were subjected to immunoprecipitation (IP) using 8G7 and subsequently to immunoblotting analysis using the commercial anti-ALK C-terminal antibody.

“Also recorded” adds a separate entry of the source.

T1 sequence (Q9UM73 19-654): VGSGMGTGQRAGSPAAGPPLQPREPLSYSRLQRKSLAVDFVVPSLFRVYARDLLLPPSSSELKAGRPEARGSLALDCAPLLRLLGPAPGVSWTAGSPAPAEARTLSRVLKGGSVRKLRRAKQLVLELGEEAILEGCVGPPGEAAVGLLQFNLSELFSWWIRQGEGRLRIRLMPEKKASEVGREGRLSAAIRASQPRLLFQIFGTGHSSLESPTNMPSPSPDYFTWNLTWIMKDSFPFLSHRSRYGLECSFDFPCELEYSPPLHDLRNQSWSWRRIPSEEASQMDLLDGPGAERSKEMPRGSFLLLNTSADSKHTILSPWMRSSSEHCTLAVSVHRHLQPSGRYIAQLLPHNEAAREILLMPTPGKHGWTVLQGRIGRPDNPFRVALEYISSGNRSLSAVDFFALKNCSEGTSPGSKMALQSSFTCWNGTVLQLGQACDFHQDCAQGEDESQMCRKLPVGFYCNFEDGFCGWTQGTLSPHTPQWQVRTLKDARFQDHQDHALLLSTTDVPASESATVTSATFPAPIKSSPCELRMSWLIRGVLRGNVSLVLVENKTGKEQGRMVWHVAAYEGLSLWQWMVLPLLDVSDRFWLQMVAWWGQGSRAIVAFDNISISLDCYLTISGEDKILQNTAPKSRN

B1: 8G7: murine monoclonal IgG1 anti-ALK antibody to the N-terminal ECD of human ALK; VH SEQ ID NO: 3, VL SEQ ID NO: 4 (antibody, V domains shown)
VH: QVQLQQSGAELVRPGASVTLSCKASGYTFTDYEMHWVKQTPVHGLEWIGAIDPETGGSAYNQKFKAKAILTADRSSSTAYMELRSLTSEDSAVYYCTRTRYYGSSPAMDYWGQGTSVTVSS
VL: DIQMTQTTSSLSASLGDRVTISCSASQGIGNYLNWYQQKPDGTVKLLIYYTSSLHSGVPSRFSGSGSGTDYSLTISNLEPEDIATYYCQQYSKLPYTFGGGTKLEIK
B1: the “recognition of circulating ALK extracellular fragment in sera” value in test [1] is “recognize the circulating ALK extracellular fragment in the sera of patients with ALK-expressing neuroblastoma”. Moreover, in the test with ALK (cell lysates of neuroblastoma cells expressing ALK), the “ALK protein recognized by western blotting in cell lysates” value is “recognized a 220 kDa protein in the cell lysates of neuroblastoma cells; also recorded: detected the 220 kDa full-length protein but not the 140 kDa fragment in cell lysates”. Moreover, the “ALK protein recognized by western blotting in media” value with ALK (conditioned media of NB cells, shed ECD domain) is reported as “an approximately 100 kDa protein in the media; also recorded: ALK fragment with a molecular mass of approximately 100 kDa was identified in the conditioned media of all five NB cell lines”. Also, the “binding in immunocytochemistry and immunohistochemistry” value in the test with ALK receptor is “showed binding in engineered cells and transgenic mice tumors”. Further, the “immunoprecipitation of ALK” value in the test with full-length ALK receptor is given as “can immunoprecipitate ALK; also recorded: immunoprecipitated only the full-length 220 kDa form of ALK”.

Source of the values: patent publication US20240262917A1, “ANTIBODIES AGAINST ALK AND METHODS OF USE THEREOF” (Dana-Farber Cancer Institute, Inc., priority 2021, published 2024).
